This assay addresses UBR4_(xtal) (UBR4 residues 4,730–5,183) (human) (UniProt Q5T4S7). As to the kind of experiment: ITC; UBR4 construct in the cell (74 μM), UBE2A in the syringe at tenfold higher concentration; 25 °C; 0.4 µl then 13 injections of 3 µl; UBE2A into buffer subtracted; single site binding model. Background: ITC needs no label: the signal is the heat of the interaction.

UBE2A, sequence (P49459 whole entry): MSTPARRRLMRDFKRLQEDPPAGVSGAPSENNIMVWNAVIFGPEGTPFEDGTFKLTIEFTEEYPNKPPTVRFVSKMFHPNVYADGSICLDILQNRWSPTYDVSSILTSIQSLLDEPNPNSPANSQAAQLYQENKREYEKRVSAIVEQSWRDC
UBR4_(xtal) (UBR4 residues 4,730–5,183) (human), sequence (Q5T4S7 4730-5183): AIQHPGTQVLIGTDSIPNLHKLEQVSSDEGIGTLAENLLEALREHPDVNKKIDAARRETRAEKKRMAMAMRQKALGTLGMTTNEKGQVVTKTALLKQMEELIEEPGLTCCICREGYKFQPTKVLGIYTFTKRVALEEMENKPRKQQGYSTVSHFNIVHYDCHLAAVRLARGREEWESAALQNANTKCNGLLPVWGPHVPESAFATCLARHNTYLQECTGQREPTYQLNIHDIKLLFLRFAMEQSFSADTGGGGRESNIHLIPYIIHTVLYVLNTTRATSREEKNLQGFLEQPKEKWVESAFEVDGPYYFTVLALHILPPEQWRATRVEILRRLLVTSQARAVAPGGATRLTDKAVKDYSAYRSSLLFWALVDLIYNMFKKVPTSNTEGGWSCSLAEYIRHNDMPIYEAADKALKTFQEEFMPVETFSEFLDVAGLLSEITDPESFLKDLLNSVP

Regarding “UBE2A (from UniProt P49459 1-152) (enzyme)”, the dH is -13.9 kcal/mol.

Values taken from paper PMC10873205.
